Consider 13 molecules from patent publication US20260098080A1, “A MODIFIED PROTEIN SCAFFOLD AND USE THEREOF” (EVOLVERITAS BIOTECHNOLÓGIAI KORLÁTOLT FELELOSSÉGU TÁRSASÁG, priority 2022, published 2026).

For assay [1], the target named is T1, human MASP-2 (in normal human serum) (human, UniProt O00187 16-686). Briefly: cell-based or functional assay.
Assay [2] addresses rat MASP-2 (in rat serum) (rat, UniProt Q9JJS8 20-685). Briefly: cell-based or functional assay.
For assay [3], the target named is T2, rat MASP-2cf CCP1-CCP2-SP (rat, UniProt Q9JJS8 298-685).
T2 construct: range 298-685; Mw 42309 Da; also called rat MASP-2 catalytic fragment
T2 sequence (Q9JJS8 other isoform, or with tags, fused parts or gaps limits assumed, form in doubt): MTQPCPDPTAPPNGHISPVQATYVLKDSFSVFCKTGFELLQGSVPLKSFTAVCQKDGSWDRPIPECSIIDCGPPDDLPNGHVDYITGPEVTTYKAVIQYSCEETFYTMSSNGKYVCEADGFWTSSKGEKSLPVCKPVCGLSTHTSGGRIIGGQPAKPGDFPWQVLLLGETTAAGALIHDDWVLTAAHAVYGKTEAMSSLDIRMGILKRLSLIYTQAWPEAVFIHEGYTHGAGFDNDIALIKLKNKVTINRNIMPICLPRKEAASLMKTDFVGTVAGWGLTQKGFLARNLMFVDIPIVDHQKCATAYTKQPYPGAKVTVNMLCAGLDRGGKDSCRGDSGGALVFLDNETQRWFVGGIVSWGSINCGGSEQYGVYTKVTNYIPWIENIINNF
As to the kind of experiment: enzyme inhibition, tight-binding fit.

Assay [4] deals with T3, human MASP-2cf CCP1-CCP2-SP (human, UniProt O00187 298-686, limits assumed).
T3 construct: domain: CCP1-CCP2-SP; also called human MASP-2 catalytic fragment
T3 sequence (O00187 298-686 limits assumed): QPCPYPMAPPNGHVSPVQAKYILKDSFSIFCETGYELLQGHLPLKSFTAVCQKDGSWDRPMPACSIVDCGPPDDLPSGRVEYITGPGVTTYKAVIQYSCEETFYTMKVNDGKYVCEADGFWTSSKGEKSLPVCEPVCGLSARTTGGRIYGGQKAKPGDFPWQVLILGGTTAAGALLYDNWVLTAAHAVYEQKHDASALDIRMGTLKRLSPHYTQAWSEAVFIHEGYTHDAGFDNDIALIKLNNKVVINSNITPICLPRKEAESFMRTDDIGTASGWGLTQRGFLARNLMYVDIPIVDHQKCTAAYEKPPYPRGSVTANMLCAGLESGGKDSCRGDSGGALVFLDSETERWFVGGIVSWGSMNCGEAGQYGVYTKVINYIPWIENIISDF
Briefly: enzyme inhibition, tight-binding fit.

For assay [5], the target named is T2, rat MASP-2cf CCP1-CCP2-SP. As to the kind of experiment: SPR, target immobilised. In general terms: SPR reads the build-up and loss of mass on a sensor chip optically.
Assay [6] concerns the target T3, human MASP-2cf CCP1-CCP2-SP. As to the kind of experiment: SPR, target immobilised.
In assay [7] the target is T1, human MASP-2 (in normal human serum). As to the kind of experiment: cell-based or functional assay. This is another data set of the same source.

Where no end group is shown, it is not given here.

Sequence of rat MASP-2 (in rat serum) (Q9JJS8 20-685 limits assumed): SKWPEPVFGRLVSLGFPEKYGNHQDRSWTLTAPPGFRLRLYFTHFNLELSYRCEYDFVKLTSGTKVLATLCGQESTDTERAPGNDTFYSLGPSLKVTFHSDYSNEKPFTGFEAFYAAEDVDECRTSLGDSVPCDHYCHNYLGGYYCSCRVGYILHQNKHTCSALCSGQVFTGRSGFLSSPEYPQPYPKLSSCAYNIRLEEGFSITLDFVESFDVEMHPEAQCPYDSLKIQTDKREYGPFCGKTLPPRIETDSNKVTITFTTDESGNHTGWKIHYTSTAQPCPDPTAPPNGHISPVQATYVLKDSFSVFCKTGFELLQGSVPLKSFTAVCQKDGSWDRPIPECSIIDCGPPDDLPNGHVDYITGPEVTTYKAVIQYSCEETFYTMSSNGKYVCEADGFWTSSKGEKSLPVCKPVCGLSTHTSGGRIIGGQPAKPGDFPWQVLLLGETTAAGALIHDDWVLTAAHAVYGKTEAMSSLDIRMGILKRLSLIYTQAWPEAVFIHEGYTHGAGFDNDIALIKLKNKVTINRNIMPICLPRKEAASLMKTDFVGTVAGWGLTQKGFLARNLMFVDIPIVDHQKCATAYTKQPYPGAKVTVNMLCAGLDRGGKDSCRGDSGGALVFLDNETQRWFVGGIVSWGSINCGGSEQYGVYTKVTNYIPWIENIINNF
T1 sequence (O00187 16-686 limits assumed): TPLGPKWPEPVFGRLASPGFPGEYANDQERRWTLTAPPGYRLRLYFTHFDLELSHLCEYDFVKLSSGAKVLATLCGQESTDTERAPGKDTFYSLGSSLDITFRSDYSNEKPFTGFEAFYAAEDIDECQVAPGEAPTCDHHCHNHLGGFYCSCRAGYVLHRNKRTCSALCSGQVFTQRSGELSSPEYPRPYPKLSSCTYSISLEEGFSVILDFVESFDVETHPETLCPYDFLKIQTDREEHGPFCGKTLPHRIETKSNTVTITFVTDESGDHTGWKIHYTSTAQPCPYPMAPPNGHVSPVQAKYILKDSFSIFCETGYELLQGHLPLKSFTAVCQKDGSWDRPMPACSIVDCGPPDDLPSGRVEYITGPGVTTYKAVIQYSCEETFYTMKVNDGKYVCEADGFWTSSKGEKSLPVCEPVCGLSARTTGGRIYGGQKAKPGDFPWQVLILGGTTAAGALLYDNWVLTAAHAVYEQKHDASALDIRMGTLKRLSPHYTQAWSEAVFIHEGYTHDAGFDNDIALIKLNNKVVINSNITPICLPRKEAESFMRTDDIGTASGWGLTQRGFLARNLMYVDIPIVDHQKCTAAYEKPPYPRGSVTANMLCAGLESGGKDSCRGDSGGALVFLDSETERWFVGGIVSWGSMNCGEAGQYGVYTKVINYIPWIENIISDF

B1: EVO22 (designed binder)
chain: KPDFCFLENDPGPCRALKRRYFYNNQTKQCERFYYGGCLGNMNNFVTLEECKNICEDG
modifications: not fully specified; cysteine pairing not given here
notes: Modified TFPI-D2 Kunitz domain; made as m1
For the molecule B1, in assay [1], the “IC50, lectin pathway C4 deposition, human serum” value (“IC50 … human serum” for short) is 4.1 nM and the “Relative potency, lectin pathway, human serum” value (“Relative potency … human serum” for short) was 33.4 fold vs EVO2. Further, in assay [2], the “IC50, lectin pathway C4 deposition, rat serum” value (“IC50 … rat serum” for short) came to 9.9 nM and the “Relative potency, lectin pathway, rat serum” value (shortened to “Relative potency … rat serum”) came to 10.8 fold vs EVO2. For the same molecule, affinity in assay [3] was put at a Ki of 0.31 nM. Also, the Ki (usually a dissociation constant, usually derived from enzyme kinetics or from competition with a known ligand) in assay [4] was determined as 0.15 nM. In addition, in assay [5], the Kd (usually the concentration at which binding is half-saturated) was 0.229 nM; the Relative affinity worked out at 15.9 fold vs EVO2; the koff – broadly, the first-order rate constant of dissociation – was determined as 0.000256 s⁻¹; the kon (in general, a measure of how fast the partners come together) came out at 1.12e+06 M⁻¹ s⁻¹. In assay [6], this molecule registered a Kd of 0.137 nM, a Relative affinity of 13.1 fold vs EVO2, a koff of 0.000314 s⁻¹ and a kon of 2.3e+06 M⁻¹ s⁻¹.

B2: EVO211a (designed binder)
chain: KPDFCFLEEDPGWCRALKRRYFYNNQTKQCERFGYGGCFGNMNNFVTLEECKNICEDG
As to B2, in assay [1], the “IC50 … human serum” value came to 9.1 nM and the “Relative potency … human serum” value turned out to be 15.2 fold vs EVO2. Further, in assay [2], the “IC50 … rat serum” value turned out to be 30.6 nM and the “Relative potency … rat serum” value was determined as 3.5 fold vs EVO2. The “Relative potency (relative human lectin pathway inhibitory efficiency compared to EVO2)” value in assay [7] is 13.5 fold relative to EVO2.

B3: EVO23a (designed binder)
chain: KPDFCFLEEDPGPCRALKRRYFYNNQTKQCERFYYGGCFGNMNNFVTLEECKNICEDG
With B3, in assay [1], the “IC50 … human serum” value turned out to be 3.2 nM and the “Relative potency … human serum” value came to 43 fold vs EVO2. In assay [2], the “IC50 … rat serum” value is 14.1 nM and the “Relative potency … rat serum” value came to 7.5 fold vs EVO2. Moreover, the “Relative potency (relative human lectin pathway inhibitory efficiency compared to EVO2)” value in assay [7] was 43.1 fold relative to EVO2.

B4: EVO22d (designed binder)
chain: KPDFCFLEEDPGPCRAAKRRYFYNNQTKQCERFYYGGCFGNMNNFVTLEECKNICEDG
For B4, in assay [1], the “IC50 … human serum” value is 5.6 nM and the “Relative potency … human serum” value turned out to be 24.7 fold vs EVO2. Further, in assay [2], the “IC50 … rat serum” value was found to be 10.4 nM and the “Relative potency … rat serum” value was 10.2 fold vs EVO2. In addition, the “Relative potency (relative human lectin pathway inhibitory efficiency compared to EVO2)” value in assay [7] was 24.6 fold relative to EVO2.

B5: EVO214a (designed binder)
chain: KPDFCFLEEDPGPCRALKLRYFYNNQTKQCERFGYGGCFGNMNNFVTLEECKNICEDG
In the case of B5, in assay [1], the “IC50 … human serum” value came out at 10.2 nM and the “Relative potency … human serum” value worked out at 13.6 fold vs EVO2. Moreover, in assay [2], the “IC50 … rat serum” value was 20.3 nM and the “Relative potency … rat serum” value was found to be 5.2 fold vs EVO2. Further, the “Relative potency (relative human lectin pathway inhibitory efficiency compared to EVO2)” value in assay [7] is 15.2 fold relative to EVO2.

B6: EVO21b (designed binder)
chain: KPDFCFLEEDPGPCRALKRRYFYNNQTKQCERFGYGGCLGNMNNFVTLEECKNICEDG
modifications: not fully specified; cysteine pairing not given here
For the molecule B6, in assay [1], the “IC50 … human serum” value is 4.3 nM and the “Relative potency … human serum” value turned out to be 31.9 fold vs EVO2. In assay [2], the “IC50 … rat serum” value was determined as 7.2 nM and the “Relative potency … rat serum” value is 14.7 fold vs EVO2. Further, in assay [7], the “Relative potency (relative human lectin pathway inhibitory efficiency compared to EVO2)” value is 32.1 fold relative to EVO2.

B7: EVO223 (designed binder)
chain: KPDFCFLENDPGPCRAAAVRYFYNNQTKQCERFYYGGCLGNMNNFVTLEECKNICEDG
notes: as for B1
B7: in assay [1], the “IC50 … human serum” value is 9.9 nM and the “Relative potency … human serum” value stood at 14 fold vs EVO2. In assay [2], the “IC50 … rat serum” value stood at 12 nM and the “Relative potency … rat serum” value stood at 8.9 fold vs EVO2. Besides, the affinity in assay [3], expressed as Ki, was 0.09 nM. In assay [5], this molecule showed a Kd of 0.108 nM, a Relative affinity of 33.6 fold vs EVO2, a koff of 7.53e-05 s⁻¹ and a kon of 696000 M⁻¹ s⁻¹. Moreover, in assay [6], binding was characterised by a dissociation constant (Kd) of 0.054 nM, the Relative affinity amounted to 33.1 fold vs EVO2, the koff was 4.77e-05 s⁻¹ and the kon was 882000 M⁻¹ s⁻¹.

B8: EVO21a (designed binder)
chain: KPDFCFLENDPGPCRAVKRRYFYNNQTKQCERFGYGGCLGNMNNFVTLEECKNICEDG
modifications: not fully specified; cysteine pairing not given here
notes: as for B1
Consider B8, for which, in assay [1], the “IC50 … human serum” value was 21.4 nM and the “Relative potency … human serum” value came to 6.5 fold vs EVO2. Also, in assay [2], the “IC50 … rat serum” value stood at 39.4 nM and the “Relative potency … rat serum” value worked out at 2.7 fold vs EVO2. In assay [5], the equilibrium dissociation constant (Kd) came out at 2.02 nM, the Relative affinity is 1.8 fold vs EVO2, the off-rate constant (koff) was found to be 0.00104 s⁻¹ and the kon was found to be 515000 M⁻¹ s⁻¹. For the same molecule, in assay [6], the Kd came to 0.723 nM, the Relative affinity is 2.5 fold vs EVO2, the off-rate (koff) is 0.000839 s⁻¹ and the kon is 1.16e+06 M⁻¹ s⁻¹. Also, the “Relative potency (relative human lectin pathway inhibitory efficiency compared to EVO2)” value in assay [7] was 6.4 fold relative to EVO2.

B9: EVO213 (designed binder)
chain: KPDFCFLENDPGPCRAAKRRYFYNNQTKQCERFGYGGCLGNMNNFVTLEECKNICEDG
notes: as for B1
Consider B9, for which, in assay [1], the “IC50 … human serum” value was 28.3 nM and the “Relative potency … human serum” value came out at 4.9 fold vs EVO2. In addition, in assay [2], the “IC50 … rat serum” value was found to be 88.7 nM and the “Relative potency … rat serum” value worked out at 1.2 fold vs EVO2. In assay [5], this molecule registered a Kd of 3.81 nM, a Relative affinity of 1 fold vs EVO2, a koff of 0.00147 s⁻¹ and a kon of 386000 M⁻¹ s⁻¹. In assay [6], binding was characterised by a dissociation constant (Kd) of 0.542 nM, the Relative affinity came to 3.3 fold vs EVO2, the koff stood at 0.000524 s⁻¹ and the kon stood at 967000 M⁻¹ s⁻¹.

B10: EVO222 (designed binder)
chain: KPDFCFLENDPGLCRAAAVRYFYNNQTKQCERFYYGGCLGNMNNFVTLEECKNICEDG
modifications: not fully specified; cysteine pairing not given here
notes: as for B1
On to B10, for which, in assay [1], the “IC50 … human serum” value was 9.8 nM and the “Relative potency … human serum” value stood at 14.1 fold vs EVO2. In assay [2], the “IC50 … rat serum” value turned out to be 24.2 nM and the “Relative potency … rat serum” value is 8.9 fold vs EVO2. For the same molecule, the Ki in assay [3] came out at 0.27 nM. Besides, the Ki in assay [4] worked out at 0.1 nM. For the same molecule, in assay [5], binding was characterised by a dissociation constant (Kd) of 0.566 nM, the Relative affinity came to 6.4 fold vs EVO2, the koff turned out to be 0.000262 s⁻¹ and the kon was found to be 463000 M⁻¹ s⁻¹. In assay [6], this molecule gave a Relative affinity of 40 fold vs EVO2, a koff of 4.26e-05 s⁻¹ and a kon of 954000 M⁻¹ s⁻¹.

B11: EVO25 (designed binder)
chain: KPDFCFLENDPGPCRALKRRYFYNNQTKQCERFYYGGCFGNMNNFETLEECKNICEDG
modifications: not fully specified; cysteine pairing not given here
notes: as for B1
Turning to B11, in assay [1], the “IC50 … human serum” value turned out to be 5.6 nM and the “Relative potency … human serum” value stood at 24.5 fold vs EVO2. In assay [2], the “IC50 … rat serum” value was 15 nM and the “Relative potency … rat serum” value is 7.1 fold vs EVO2. In assay [3], this molecule came in with a Ki of 0.9 nM. Besides, in assay [5], the Kd was found to be 0.787 nM, the Relative affinity was found to be 4.6 fold vs EVO2, the koff came to 0.000826 s⁻¹ and the kon worked out at 1.05e+06 M⁻¹ s⁻¹. For the same molecule, in assay [6], the Kd turned out to be 0.203 nM, the Relative affinity was found to be 8.8 fold vs EVO2, the koff came out at 0.000438 s⁻¹ and the kon turned out to be 2.16e+06 M⁻¹ s⁻¹.

B12: EVO2 (designed binder)
chain: KPDFCFLEEDPGPCRAVKRRYFYNNQTKQCERFKYGGCLGNMNNFETLEECKNICEDG
modifications: not fully specified; ends and bridges not checked
notes: Modified Kunitz domain TFPI-D2 of human TFPI-1; recombinant from E. coli, freed from a His6-S100A4 fusion by TEV protease; also called TFMI-2b
With B12, in assay [1], the “IC50 … human serum” value was found to be 138 nM and the “Relative potency … human serum” value was 1 fold vs EVO2. In assay [2], the “IC50 … rat serum” value came out at 106 nM and the “Relative potency … rat serum” value amounted to 1 fold vs EVO2. In assay [3], this molecule came in with a Ki of 0.24 nM. In assay [4], this molecule gave a Ki of 0.65 nM. In assay [5], this molecule returned a dissociation constant Kd of 3.63 nM, a Relative affinity of 1 fold vs EVO2, a koff of 0.00107 s⁻¹ and a kon of 310000 M⁻¹ s⁻¹. Also, in assay [6], binding was put at a Kd of 1.79 nM, the Relative affinity was found to be 1 fold vs EVO2, the off-rate (koff) came to 0.0014 s⁻¹ and the kon turned out to be 809000 M⁻¹ s⁻¹.

B13: EVO212 (designed binder)
chain: KPDFCFLENDPGLCRALKRRYFYNNQTKQCERFGYGGCLGNMNNFVTLEECKNICEDG
modifications: not fully specified; ends and bridges not checked
notes: as for B1
Consider B13, for which, in assay [1], the “IC50 … human serum” value was 6.2 nM and the “Relative potency … human serum” value was found to be 22.1 fold vs EVO2. Further, in assay [2], the “IC50 … rat serum” value was determined as 46.3 nM and the “Relative potency … rat serum” value was determined as 2.3 fold vs EVO2. In assay [5], this molecule showed a dissociation constant Kd of 1.26 nM, a Relative affinity of 2.9 fold vs EVO2, an off-rate (koff) of 0.000618 s⁻¹ and a kon of 492000 M⁻¹ s⁻¹. Further, in assay [6], the Kd came out at 0.055 nM, the Relative affinity was determined as 32.7 fold vs EVO2, the koff was determined as 8.26e-05 s⁻¹ and the kon was 1.51e+06 M⁻¹ s⁻¹.
